By Kd is commonly meant the constant that tells how readily two partners part at equilibrium. Lower therefore signals higher affinity.

Results on three compounds are retold here after publication PMC4219786, “Glycan Dependence of Galectin-3 Self-Association Properties” (PLoS ONE, 2014).

Assay [1] addresses full length human Galectin-3 (1-250) (human) (UniProt P17931). Put plainly: dynamic light scattering; after centrifugation and filtration; with 140 µM LNnT (CRD up to 1.2 mM LNnT); 41 µM CRD, 37 µM FL; 5 mM potassium phosphate pH 7.4; 25°C.
Assay [2] shares this target. Kind of assay: dynamic light scattering; before filtration, after purification and freezing at -80°C; no glycan; 41 µM CRD, 37 µM FL; 5 mM potassium phosphate pH 7.4; 25°C.
The target in assay [3] is T1, Galectin-3 (Homo sapiens, UniProt P17931).
T1 construct: gene LGALS3; CRD domain (114–250), C-terminal 6His-tag
T1 sequence (P17931 114-250): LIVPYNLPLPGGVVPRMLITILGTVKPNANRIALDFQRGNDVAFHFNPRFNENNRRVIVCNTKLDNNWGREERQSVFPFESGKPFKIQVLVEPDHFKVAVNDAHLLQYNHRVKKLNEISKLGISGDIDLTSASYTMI
Put plainly: SPR steady-state KD; 1H-15N HSQC NMR titration (slow exchange). The assay is classed as binding.

Assay [4] has as its target human Galectin-3 Carbohydrate Recognition Domain (114-250) (human) (UniProt P17931). Kind of assay: dynamic light scattering; before filtration, after purification and freezing at -80°C; no glycan; 41 µM CRD, 37 µM FL; 5 mM potassium phosphate pH 7.4; 25°C.

On to “full length human Galectin-3 (1-250) (from UniProt P17931 1-250) (natural protein)”, for which, in assay [1], the % mass of size <100 nm (46.73 nm), with 140 µM LNnT was 8.7% and the % mass of size >100 nm, with 140 µM LNnT came to 91.3%. Further, the % mass of size >100 nm in assay [2] came to 67%.

`CC(=O)N[C@H]1[C@H](O[C@H]2[C@@H](O)[C@@H](CO)O[C@@H](O[C@H]3[C@H](O)[C@@H](O)C(O)O[C@@H]3CO)[C@@H]2O)O[C@H](CO)[C@@H](O[C@@H]2O[C@H](CO)[C@H](O)[C@H](O)[C@H]2O)[C@@H]1O` (some centres unmarked) [LNnT, lacto-N-neoTetraose] displayed an equilibrium dissociation constant (Kd) in assay [3] of 140 ± 17 µM. Take “human Galectin-3 Carbohydrate Recognition Domain (114-250) (from UniProt P17931 114-250) (domain or fragment)”: the % mass of size >100 nm in assay [4] turned out to be 0.7%.
